Reference: patent US20080085863A1 (WISCONSIN ALUMNI RESEARCH FOUNDATION, published 2008)

Legend:
[1] = target: T1, recombinant mutant α2-macroglobulin with the native bait region replaced by sequences flanking the human probiglycan BMP-1 cleavage site (b-α2M)
T1 chain: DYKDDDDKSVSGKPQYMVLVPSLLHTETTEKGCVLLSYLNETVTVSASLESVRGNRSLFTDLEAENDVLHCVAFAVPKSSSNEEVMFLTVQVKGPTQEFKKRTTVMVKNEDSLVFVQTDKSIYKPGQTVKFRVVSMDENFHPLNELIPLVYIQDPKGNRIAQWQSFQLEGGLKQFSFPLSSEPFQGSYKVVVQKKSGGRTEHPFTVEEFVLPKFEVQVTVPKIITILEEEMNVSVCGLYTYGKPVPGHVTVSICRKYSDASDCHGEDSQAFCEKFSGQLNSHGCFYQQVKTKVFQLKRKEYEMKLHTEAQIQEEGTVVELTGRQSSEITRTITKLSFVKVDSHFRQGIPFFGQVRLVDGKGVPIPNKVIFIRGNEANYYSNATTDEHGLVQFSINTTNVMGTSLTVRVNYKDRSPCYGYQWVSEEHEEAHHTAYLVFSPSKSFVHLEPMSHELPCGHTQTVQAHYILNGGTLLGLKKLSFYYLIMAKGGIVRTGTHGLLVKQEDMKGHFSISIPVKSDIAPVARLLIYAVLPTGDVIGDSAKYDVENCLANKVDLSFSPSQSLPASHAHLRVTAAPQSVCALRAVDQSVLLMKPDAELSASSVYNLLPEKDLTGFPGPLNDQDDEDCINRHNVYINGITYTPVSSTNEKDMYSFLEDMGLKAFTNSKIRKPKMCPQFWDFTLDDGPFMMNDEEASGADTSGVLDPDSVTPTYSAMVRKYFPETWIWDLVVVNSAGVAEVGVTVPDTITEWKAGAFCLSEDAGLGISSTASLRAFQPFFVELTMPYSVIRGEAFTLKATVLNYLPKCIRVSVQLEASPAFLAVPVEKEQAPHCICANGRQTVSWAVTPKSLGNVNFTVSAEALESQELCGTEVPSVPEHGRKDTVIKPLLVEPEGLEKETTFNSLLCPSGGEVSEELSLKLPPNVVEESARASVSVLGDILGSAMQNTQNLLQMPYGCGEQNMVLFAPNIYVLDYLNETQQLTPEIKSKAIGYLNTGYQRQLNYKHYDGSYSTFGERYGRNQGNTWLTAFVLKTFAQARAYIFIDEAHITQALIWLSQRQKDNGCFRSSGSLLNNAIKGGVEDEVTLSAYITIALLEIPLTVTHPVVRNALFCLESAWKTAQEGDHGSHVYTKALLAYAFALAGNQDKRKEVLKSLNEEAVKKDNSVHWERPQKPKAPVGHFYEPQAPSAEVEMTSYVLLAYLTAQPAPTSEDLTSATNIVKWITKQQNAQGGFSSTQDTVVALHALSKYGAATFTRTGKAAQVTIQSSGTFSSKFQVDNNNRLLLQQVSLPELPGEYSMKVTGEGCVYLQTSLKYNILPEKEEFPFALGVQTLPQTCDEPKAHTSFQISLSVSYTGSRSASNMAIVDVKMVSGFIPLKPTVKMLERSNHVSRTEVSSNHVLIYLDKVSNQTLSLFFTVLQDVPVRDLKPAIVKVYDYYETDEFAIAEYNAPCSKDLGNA

[2] = target: T2, methylamine-treated human α2-macroglobulin
T2 chain: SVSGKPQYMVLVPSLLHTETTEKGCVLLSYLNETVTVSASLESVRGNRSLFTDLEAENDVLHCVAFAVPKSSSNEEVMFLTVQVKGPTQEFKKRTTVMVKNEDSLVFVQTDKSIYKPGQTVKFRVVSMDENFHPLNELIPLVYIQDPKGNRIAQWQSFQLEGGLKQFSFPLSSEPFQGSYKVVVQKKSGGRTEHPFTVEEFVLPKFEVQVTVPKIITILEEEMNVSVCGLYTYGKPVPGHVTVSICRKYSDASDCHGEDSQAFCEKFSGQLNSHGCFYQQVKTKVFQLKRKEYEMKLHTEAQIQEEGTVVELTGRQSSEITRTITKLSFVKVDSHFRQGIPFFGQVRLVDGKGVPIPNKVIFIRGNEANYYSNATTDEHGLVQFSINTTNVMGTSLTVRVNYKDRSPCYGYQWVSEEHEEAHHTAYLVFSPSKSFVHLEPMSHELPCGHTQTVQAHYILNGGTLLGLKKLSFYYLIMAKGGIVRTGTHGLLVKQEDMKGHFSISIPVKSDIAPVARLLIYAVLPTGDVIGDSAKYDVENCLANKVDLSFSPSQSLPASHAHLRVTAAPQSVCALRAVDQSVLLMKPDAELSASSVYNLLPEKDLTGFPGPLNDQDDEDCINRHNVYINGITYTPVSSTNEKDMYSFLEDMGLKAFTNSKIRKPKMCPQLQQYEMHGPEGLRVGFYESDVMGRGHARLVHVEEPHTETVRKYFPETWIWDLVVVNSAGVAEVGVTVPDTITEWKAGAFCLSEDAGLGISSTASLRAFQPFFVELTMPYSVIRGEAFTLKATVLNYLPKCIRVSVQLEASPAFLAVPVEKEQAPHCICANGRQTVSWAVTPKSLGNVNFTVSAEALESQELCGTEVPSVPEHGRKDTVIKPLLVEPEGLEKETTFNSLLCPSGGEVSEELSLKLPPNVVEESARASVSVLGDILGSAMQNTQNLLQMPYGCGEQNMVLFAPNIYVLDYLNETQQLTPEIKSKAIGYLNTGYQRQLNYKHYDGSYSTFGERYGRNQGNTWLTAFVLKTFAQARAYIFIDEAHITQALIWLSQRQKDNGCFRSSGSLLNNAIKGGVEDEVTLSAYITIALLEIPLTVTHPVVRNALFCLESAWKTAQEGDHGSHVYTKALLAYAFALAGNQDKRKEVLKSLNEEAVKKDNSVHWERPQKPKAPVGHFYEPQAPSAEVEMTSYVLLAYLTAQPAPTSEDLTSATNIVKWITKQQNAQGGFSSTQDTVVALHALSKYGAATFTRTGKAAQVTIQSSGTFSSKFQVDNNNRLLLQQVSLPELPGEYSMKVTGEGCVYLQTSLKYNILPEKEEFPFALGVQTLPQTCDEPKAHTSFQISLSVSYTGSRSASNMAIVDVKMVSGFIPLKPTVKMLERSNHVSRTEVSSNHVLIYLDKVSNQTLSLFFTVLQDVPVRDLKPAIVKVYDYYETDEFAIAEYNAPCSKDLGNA

[3] = target: T1, recombinant mutant α2-macroglobulin …; assay: 2 hour co-incubation of 40 nM 35S-BMP-1 with 40 nM α2M, SDS-PAGE autofluorogram
[4] = target: T3, recombinant wild type α2-macroglobulin (FLAG-tagged); assay: as above
T3 chain: T2 chain

[5] = target: T4, human α2-macroglobulin from plasma (Sigma-Aldrich); assay: as above
T4 chain: T2 chain

B1: Flag-tagged recombinant bone morphogenetic protein-1 (BMP-1) (protein)
chain: AATSRPERVWPDGVIPFVIGGNFTGSQRAVFRQAMRHWEKHTCVTFLERTDEDSYIVFTYRPCGCCSYVGRRGGGPQAISIGKNCDKFGIVVHELGHVVGFWHEHTRPDRDRHVSIVRENIQPGQEYNFLKMEPQEVESLGETYDFDSIMHYARNTFSRGIFLDTIVPKYEVNGVKPPIGQRTRLSKGDIAQARKLYKCPACGETLQDSTGNFSSPEYPNGYSAHMHCVWRISVTPGEKIILNFTSLDLYRSRLCWYDYVEVRDGFWRKAPLRGRFCGSKLPEPIVSTDSRLWVEFRSSSNWVGKGFFAVYEAICGGDVKKDYGHIQSPNYPDDYRPSKVCIWRIQVSEGFHVGLTFQSFEIERHDSCAYDYLEVRDGHSESSTLIGRYCGYEKPDDIKSTSSRLWLKFVSDGSINKAGFAVNFFKEVDECSRPNRGGCEQRCLNTLGSYKCSCDPGYELAPDKRRCEAACGGFLTKLNGSITSPGWPKEYPPNKNCIWQLVAPTQYRISLQFDFFETEGNDVCKYDFVEVRSGLTADSKLHGKFCGSEKPEVITSQYNNMRVEFKSDNTVSKKGFKAHFFSEKRPALQPPRGRPHQLKFRVQKRNRTPQ
In the case of B1, the “cleavage of α2M by BMP-1 (Western blot, time course)” value [1] is reported as “b-α2M is cleaved by BMP-1 more readily than recombinant wild-type α2M (rα2M)”, the “cleavage of α2M by BMP-1 (SDS-PAGE)” value [2] is reported as “BMP-1 was unable to cleave methylamine-treated α2M” and the “percent of BMP-1 incorporated into complexes” value (from here on “percent”) [3] is reported as 42% of sample. The “percent” value [4] was 12% of sample and the “percent” value [5] was 28% of sample.
